The assay deals with FGF-21 receptor. As to the kind of experiment: cell-based or functional assay.

These results are taken from patent US20120238496A1.

As for “recombinant human FGF-21 (from UniProt Q9NSA1 29-209) (ligand)”, the Glucose uptake CPM, 3T3-L1 fat cells, protein at 0 nM (baseline) was 1880 CPM; the Glucose uptake CPM, 3T3-L1 fat cells, protein at 0.03 nM amounted to 1800 CPM; the Glucose uptake CPM, 3T3-L1 fat cells, protein at 0.15 nM worked out at 2110 CPM; the Glucose uptake CPM, 3T3-L1 fat cells, protein at 0.8 nM was 2200 CPM. This substance came in with a Glucose uptake CPM, 3T3-L1 fat cells, protein at 4 nM of 3300 CPM; a Glucose uptake CPM, 3T3-L1 fat cells, protein at 20 nM of 5130 CPM; a Glucose uptake CPM, 3T3-L1 fat cells, protein at 100 nM of 5320 CPM.
